Measured values from patent US20230002480A1.

Experiments:
Test in all cases: cell-based or functional assay
[1] = target: HIV-1 Env of pseudovirus T278-50 (clade CRF02_AG) (HIV-1)
[2] = target: HIV-1 Env of pseudovirus BJOX015000.11.5 (clade CRF01_AE (T/F)) (HIV-1)
[3] = target: HIV-1 Env of pseudovirus C2101.c01 (clade CRF01_AE) (HIV-1)
[4] = target: HIV-1 Env of pseudovirus C4118.c09 (clade CRF01_AE) (HIV-1)
[5] = target: HIV-1 Env of pseudovirus 620345.c01 (clade CRF01_AE) (HIV-1)
[6] = target: HIV-1 Env of pseudovirus X1193_c1 (clade G) (HIV-1)
[7] = target: HIV-1 Env of pseudovirus R3265.c06 (clade CRF01_AE) (HIV-1)
[8] = target: HIV-1 Env of pseudovirus BJOX010000.06.2 (clade CRF01_AE (T/F)) (HIV-1)
[9] = target: HIV-1 Env of pseudovirus R1166.c01 (clade CRF01_AE) (HIV-1)
[10] = target: HIV-1 Env pseudovirus P1981_C5_3 (HIV-1)
[11] = target: HIV-1 Env pseudovirus 191955_A11 (HIV-1)
[12] = target: HIV-1 Env pseudovirus BJOX028000.10.3 (HIV-1)
[13] = target: HIV-1 Env pseudovirus 6480.v4.c25 (HIV-1)
[14] = target: HIV-1 Env pseudovirus 6041.v3.c23 (HIV-1)
[15] = target: HIV-1 Env pseudovirus BJOX010000.06.2 (HIV-1)
[16] = target: HIV-1 Env pseudovirus BJOX015000.11.5 (HIV-1)
[17] = target: HIV-1 Env pseudovirus 231965.c01 (HIV-1)
[18] = target: HIV-1 Env pseudovirus X2088_c9 (HIV-1)

Substance | IC50 [10] | IC80 [10] | MPI [10] | IC50 [11] | IC80 [11] | MPI [11] | IC50 [12] | IC80 [12] | MPI [12] | IC50 [13] | IC80 [13] | MPI [13] | IC50 [14] | IC80 [14] | MPI [14] | IC50 [15] | IC80 [15] | MPI [15] | IC50 [16] | IC80 [16] | further results
PG16 (antibody) | – | – | – | – | – | – | – | – | – | – | – | – | – | – | – | – | – | – | – | – | IC50, titer in TZM.bl cells [1]: 0.227 µg/mL; IC80, titer in TZM.bl cells [1]: 18.6 µg/mL; IC50, titer in TZM.bl cells [2]: 3.13 µg/mL; IC80, titer in TZM.bl cells [2]: > 50 µg/mL; IC50, titer in TZM.bl cells [3]: 0.012 µg/mL; IC80, titer in TZM.bl cells [3]: 0.238 µg/mL; IC50, titer in TZM.bl cells [4]: 0.022 µg/mL; IC80, titer in TZM.bl cells [4]: 0.143 µg/mL; IC50, titer in TZM.bl cells [5]: > 50 µg/mL; IC80, titer in TZM.bl cells [5]: > 50 µg/mL; IC50, titer in TZM.bl cells [6]: 0.018 µg/mL; IC80, titer in TZM.bl cells [6]: 0.11 µg/mL; IC50, titer in TZM.bl cells [7]: 0.016 µg/mL; IC80, titer in TZM.bl cells [7]: 0.146 µg/mL; IC50, titer in TZM.bl cells [8]: 1.2 µg/mL; IC80, titer in TZM.bl cells [8]: > 50 µg/mL; IC50, titer in TZM.bl cells [9]: 0.28 µg/mL; IC80, titer in TZM.bl cells [9]: 4.38 µg/mL
N49P9.1 (antibody) | 0.469 µg/mL | 1.52 µg/mL | 100 | > 50 µg/mL | > 50 µg/mL | 26 | 0.04 µg/mL | 0.2 µg/mL | 100 | 0.03 µg/mL | 0.082 µg/mL | 100 | 0.282 µg/mL | 6.78 µg/mL | 90 | 0.883 µg/mL | 4.26 µg/mL | 100 | 0.068 µg/mL | 0.478 µg/mL | MPI [16]: 100; IC50 [17]: 0.474 µg/mL; IC80 [17]: 2.24 µg/mL; MPI [17]: 100; IC50 [18]: 0.091 µg/mL; IC80 [18]: 0.392 µg/mL; MPI [18]: 100
N49P19 (antibody) | 20.2 µg/mL | > 50 µg/mL | 68 | > 50 µg/mL | > 50 µg/mL | 16 | 7 µg/mL | > 50 µg/mL | 80 | 3.04 µg/mL | 28.2 µg/mL | 87 | > 50 µg/mL | > 50 µg/mL | 32 | 4.16 µg/mL | 19.1 µg/mL | 96 | 0.756 µg/mL | 3.17 µg/mL | MPI [16]: 99; IC50 [17]: > 50 µg/mL; IC80 [17]: > 50 µg/mL; MPI [17]: 22; IC50 [18]: 1.4 µg/mL; IC80 [18]: 3.76 µg/mL; MPI [18]: 99
N49P9 (antibody) | 0.308 µg/mL | 0.701 µg/mL | 100 | > 50 µg/mL | > 50 µg/mL | 35 | 0.031 µg/mL | 0.134 µg/mL | 100 | 0.017 µg/mL | 0.047 µg/mL | 100 | 0.089 µg/mL | 0.777 µg/mL | 95 | 0.482 µg/mL | 2.34 µg/mL | 100 | 0.089 µg/mL | 0.375 µg/mL | MPI [16]: 100; IC50 [17]: 0.253 µg/mL; IC80 [17]: 1.16 µg/mL; MPI [17]: 100; IC50 [18]: 0.07 µg/mL; IC80 [18]: 0.252 µg/mL; MPI [18]: 100
